Data reported in patent US20250171562A1 (ALK ABELL, published 2025).

Target: T1, recombinant human IgE (human, UniProt P01854-1 1-428)
T1 construct: made in-house (ALK); preloaded on immobilised FcεRIα in the displacement ELISA
Assay: IgE-FcεRIα displacement ELISA
Method in brief: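 Streptavidin-coated plates carried site-specifically biotinylated recombinant human FcεRIα, loaded with recombinant human IgE at 13 ng/ml. sdAbs in a pM–μM series were added for 1 h, and displaced IgE was washed off. Percent displacement was the signal reduction versus the no-sdAb control, giving EC50 and maximal effect.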

T1 sequence (P01854 other isoform, or with tags, fused parts or gaps): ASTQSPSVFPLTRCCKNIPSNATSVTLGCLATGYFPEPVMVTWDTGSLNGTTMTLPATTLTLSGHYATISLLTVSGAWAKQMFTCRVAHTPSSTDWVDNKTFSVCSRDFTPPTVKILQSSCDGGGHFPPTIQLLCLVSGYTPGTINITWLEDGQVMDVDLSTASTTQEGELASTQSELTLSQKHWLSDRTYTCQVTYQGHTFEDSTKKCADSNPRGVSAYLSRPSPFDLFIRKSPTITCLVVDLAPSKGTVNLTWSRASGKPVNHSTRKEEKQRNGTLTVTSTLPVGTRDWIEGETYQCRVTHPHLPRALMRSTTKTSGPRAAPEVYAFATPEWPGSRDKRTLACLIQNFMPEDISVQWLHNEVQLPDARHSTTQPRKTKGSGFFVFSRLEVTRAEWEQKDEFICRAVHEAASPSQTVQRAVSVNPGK

EC50 [µM]	Max effect [%]	Binder
0.13	85	CIgG4E3A1(G4S)1 (Fc fusion) chain 1: GPPCPPCPAPEFLGGPSVFLFPPKPKDTLMISRTPEVTCVVVDVSQEDPEVQFNWYVDGVEVHNAKTKPREEQFNSTYRVVSVLTVLHQDWLNGKEYKCKVSNKGLPSSIEKTISKAKGQPREPQVYTLPPCQEEMTKNQVSLWCLVKGFYPSDIAVEWESNGQPENNYKTTPPVLDSDGSFFLYSRLTVDKSRWQEGNVFSCSVMHEALHNHYTQKSLSLSLGKGGGGSDVQLQESGGGLVQAGGSLRLACAASGRTLSSYVVSWFRQAPGKERKFVAAITWSGLSTTYLDSVQGRFTISRDNTKDTVYLQMNSLKPQDTAIYYCAAGPNIPSILRTRESEYAYWGQGTQVTVS chain 2: GPPCPPCPAPEFLGGPSVFLFPPKPKDTLMISRTPEVTCVVVDVSQEDPEVQFNWYVDGVEVHNAKTKPREEQFNSTYRVVSVLTVLHQDWLNGKEYKCKVSNKGLPSSIEKTISKAKGQPREPQVCTLPPSQEEMTKNQVSLSCAVKGFYPSDIAVEWESNGQPENNYKTTPPVLDSDGSFFLVSRLTVDKSRWQEGNVFSCSVMHEALHNHYTQKSLSLSLGKGGGGSEVQLLESGGGLVQPGGSLRLSCAASGFTFGNYDMAWVRQAPGKRPEWVSSIDTGGDITHYADSVKGRFTISRDNAKNTLYLQMNSLRPEDTAVYWCATDEEYALGPNEFDYYGQGTLVTVSS
0.13	85	CIgG4E4A1(G4S)1 (Fc fusion) chain 1: GPPCPPCPAPEFLGGPSVFLFPPKPKDTLMISRTPEVTCVVVDVSQEDPEVQFNWYVDGVEVHNAKTKPREEQFNSTYRVVSVLTVLHQDWLNGKEYKCKVSNKGLPSSIEKTISKAKGQPREPQVYTLPPCQEEMTKNQVSLWCLVKGFYPSDIAVEWESNGQPENNYKTTPPVLDSDGSFFLYSRLTVDKSRWQEGNVFSCSVMHEALHNHYTQKSLSLSLGKGGGGSDVQLQESGGGLVQPGGSLRLSCAASGFRFSNYAMRWYRQAPGKEREFVARISSTGFITRYTASVRDRFTISRDNDKNMMYLQLNKLTPQDTAHYYCNAESTDYWGQGTQVTVS chain 2: GPPCPPCPAPEFLGGPSVFLFPPKPKDTLMISRTPEVTCVVVDVSQEDPEVQFNWYVDGVEVHNAKTKPREEQFNSTYRVVSVLTVLHQDWLNGKEYKCKVSNKGLPSSIEKTISKAKGQPREPQVCTLPPSQEEMTKNQVSLSCAVKGFYPSDIAVEWESNGQPENNYKTTPPVLDSDGSFFLVSRLTVDKSRWQEGNVFSCSVMHEALHNHYTQKSLSLSLGKGGGGSEVQLLESGGGLVQPGGSLRLSCAASGFTFGNYDMAWVRQAPGKRPEWVSSIDTGGDITHYADSVKGRFTISRDNAKNTLYLQMNSLRPEDTAVYWCATDEEYALGPNEFDYYGQGTLVTVSS
–	30	CIgG4E3A1(RS) (Fc fusion) chain 1: GPPCPPCPAPEFLGGPSVFLFPPKPKDTLMISRTPEVTCVVVDVSQEDPEVQFNWYVDGVEVHNAKTKPREEQFNSTYRVVSVLTVLHQDWLNGKEYKCKVSNKGLPSSIEKTISKAKGQPREPQVYTLPPCQEEMTKNQVSLWCLVKGFYPSDIAVEWESNGQPENNYKTTPPVLDSDGSFFLYSRLTVDKSRWQEGNVFSCSVMHEALHNHYTQKSLSLSLGKRSDVQLQESGGGLVQAGGSLRLACAASGRTLSSYVVSWFRQAPGKERKFVAAITWSGLSTTYLDSVQGRFTISRDNTKDTVYLQMNSLKPQDTAIYYCAAGPNIPSILRTRESEYAYWGQGTQVTVS chain 2: GPPCPPCPAPEFLGGPSVFLFPPKPKDTLMISRTPEVTCVVVDVSQEDPEVQFNWYVDGVEVHNAKTKPREEQFNSTYRVVSVLTVLHQDWLNGKEYKCKVSNKGLPSSIEKTISKAKGQPREPQVCTLPPSQEEMTKNQVSLSCAVKGFYPSDIAVEWESNGQPENNYKTTPPVLDSDGSFFLVSRLTVDKSRWQEGNVFSCSVMHEALHNHYTQKSLSLSLGKRSEVQLLESGGGLVQPGGSLRLSCAASGFTFGNYDMAWVRQAPGKRPEWVSSIDTGGDITHYADSVKGRFTISRDNAKNTLYLQMNSLRPEDTAVYWCATDEEYALGPNEFDYYGQGTLVTVSS
–	40	CIgG4E4A1(RS) (Fc fusion) chain 1: GPPCPPCPAPEFLGGPSVFLFPPKPKDTLMISRTPEVTCVVVDVSQEDPEVQFNWYVDGVEVHNAKTKPREEQFNSTYRVVSVLTVLHQDWLNGKEYKCKVSNKGLPSSIEKTISKAKGQPREPQVYTLPPCQEEMTKNQVSLWCLVKGFYPSDIAVEWESNGQPENNYKTTPPVLDSDGSFFLYSRLTVDKSRWQEGNVFSCSVMHEALHNHYTQKSLSLSLGKRSDVQLQESGGGLVQPGGSLRLSCAASGFRFSNYAMRWYRQAPGKEREFVARISSTGFITRYTASVRDRFTISRDNDKNMMYLQLNKLTPQDTAHYYCNAESTDYWGQGTQVTVS chain 2: GPPCPPCPAPEFLGGPSVFLFPPKPKDTLMISRTPEVTCVVVDVSQEDPEVQFNWYVDGVEVHNAKTKPREEQFNSTYRVVSVLTVLHQDWLNGKEYKCKVSNKGLPSSIEKTISKAKGQPREPQVCTLPPSQEEMTKNQVSLSCAVKGFYPSDIAVEWESNGQPENNYKTTPPVLDSDGSFFLVSRLTVDKSRWQEGNVFSCSVMHEALHNHYTQKSLSLSLGKRSEVQLLESGGGLVQPGGSLRLSCAASGFTFGNYDMAWVRQAPGKRPEWVSSIDTGGDITHYADSVKGRFTISRDNAKNTLYLQMNSLRPEDTAVYWCATDEEYALGPNEFDYYGQGTLVTVSS
0.16	75	CIgG4E2A1(G4S)3 (Fc fusion) chain 1: GPPCPPCPAPEFLGGPSVFLFPPKPKDTLMISRTPEVTCVVVDVSQEDPEVQFNWYVDGVEVHNAKTKPREEQFNSTYRVVSVLTVLHQDWLNGKEYKCKVSNKGLPSSIEKTISKAKGQPREPQVYTLPPCQEEMTKNQVSLWCLVKGFYPSDIAVEWESNGQPENNYKTTPPVLDSDGSFFLYSRLTVDKSRWQEGNVFSCSVMHEALHNHYTQKSLSLSLGKGGGGSGGGGSGGGGSDVQLQESGGGLVQAGGSLRLSCAASGRTISRYAVGWFRRPPAKEREFIGINWSGGSTTYADSAEGRFIISRDNAKNTVYLQMNSLKPEDTAVYYCAVPSVLVQGGISNPSQYDYWGQGTQVTVS chain 2: GPPCPPCPAPEFLGGPSVFLFPPKPKDTLMISRTPEVTCVVVDVSQEDPEVQFNWYVDGVEVHNAKTKPREEQFNSTYRVVSVLTVLHQDWLNGKEYKCKVSNKGLPSSIEKTISKAKGQPREPQVCTLPPSQEEMTKNQVSLSCAVKGFYPSDIAVEWESNGQPENNYKTTPPVLDSDGSFFLVSRLTVDKSRWQEGNVFSCSVMHEALHNHYTQKSLSLSLGKGGGGSGGGGSGGGGSEVQLLESGGGLVQPGGSLRLSCAASGFTFGNYDMAWVRQAPGKRPEWVSSIDTGGDITHYADSVKGRFTISRDNAKNTLYLQMNSLRPEDTAVYWCATDEEYALGPNEFDYYGQGTLVTVSS
0.036	90	CIgG4E3A1(G4S)3 (Fc fusion) chain 1: GPPCPPCPAPEFLGGPSVFLFPPKPKDTLMISRTPEVTCVVVDVSQEDPEVQFNWYVDGVEVHNAKTKPREEQFNSTYRVVSVLTVLHQDWLNGKEYKCKVSNKGLPSSIEKTISKAKGQPREPQVYTLPPCQEEMTKNQVSLWCLVKGFYPSDIAVEWESNGQPENNYKTTPPVLDSDGSFFLYSRLTVDKSRWQEGNVFSCSVMHEALHNHYTQKSLSLSLGKGGGGSGGGGSGGGGSDVQLQESGGGLVQAGGSLRLACAASGRTLSSYVVSWFRQAPGKERKFVAAITWSGLSTTYLDSVQGRFTISRDNTKDTVYLQMNSLKPQDTAIYYCAAGPNIPSILRTRESEYAYWGQGTQVTVS chain 2: GPPCPPCPAPEFLGGPSVFLFPPKPKDTLMISRTPEVTCVVVDVSQEDPEVQFNWYVDGVEVHNAKTKPREEQFNSTYRVVSVLTVLHQDWLNGKEYKCKVSNKGLPSSIEKTISKAKGQPREPQVCTLPPSQEEMTKNQVSLSCAVKGFYPSDIAVEWESNGQPENNYKTTPPVLDSDGSFFLVSRLTVDKSRWQEGNVFSCSVMHEALHNHYTQKSLSLSLGKGGGGSGGGGSGGGGSEVQLLESGGGLVQPGGSLRLSCAASGFTFGNYDMAWVRQAPGKRPEWVSSIDTGGDITHYADSVKGRFTISRDNAKNTLYLQMNSLRPEDTAVYWCATDEEYALGPNEFDYYGQGTLVTVSS
0.41	65	CIgG4E2A1(G4S)2 (Fc fusion) chain 1: GPPCPPCPAPEFLGGPSVFLFPPKPKDTLMISRTPEVTCVVVDVSQEDPEVQFNWYVDGVEVHNAKTKPREEQFNSTYRVVSVLTVLHQDWLNGKEYKCKVSNKGLPSSIEKTISKAKGQPREPQVYTLPPCQEEMTKNQVSLWCLVKGFYPSDIAVEWESNGQPENNYKTTPPVLDSDGSFFLYSRLTVDKSRWQEGNVFSCSVMHEALHNHYTQKSLSLSLGKGGGGSGGGGSDVQLQESGGGLVQAGGSLRLSCAASGRTISRYAVGWFRRPPAKEREFIGINWSGGSTTYADSAEGRFIISRDNAKNTVYLQMNSLKPEDTAVYYCAVPSVLVQGGISNPSQYDYWGQGTQVTVS chain 2: GPPCPPCPAPEFLGGPSVFLFPPKPKDTLMISRTPEVTCVVVDVSQEDPEVQFNWYVDGVEVHNAKTKPREEQFNSTYRVVSVLTVLHQDWLNGKEYKCKVSNKGLPSSIEKTISKAKGQPREPQVCTLPPSQEEMTKNQVSLSCAVKGFYPSDIAVEWESNGQPENNYKTTPPVLDSDGSFFLVSRLTVDKSRWQEGNVFSCSVMHEALHNHYTQKSLSLSLGKGGGGSGGGGSEVQLLESGGGLVQPGGSLRLSCAASGFTFGNYDMAWVRQAPGKRPEWVSSIDTGGDITHYADSVKGRFTISRDNAKNTLYLQMNSLRPEDTAVYWCATDEEYALGPNEFDYYGQGTLVTVSS
0.05	> 95	CIgG4E3A1(G4S)2 (Fc fusion) chain 1: GPPCPPCPAPEFLGGPSVFLFPPKPKDTLMISRTPEVTCVVVDVSQEDPEVQFNWYVDGVEVHNAKTKPREEQFNSTYRVVSVLTVLHQDWLNGKEYKCKVSNKGLPSSIEKTISKAKGQPREPQVYTLPPCQEEMTKNQVSLWCLVKGFYPSDIAVEWESNGQPENNYKTTPPVLDSDGSFFLYSRLTVDKSRWQEGNVFSCSVMHEALHNHYTQKSLSLSLGKGGGGSGGGGSDVQLQESGGGLVQAGGSLRLACAASGRTLSSYVVSWFRQAPGKERKFVAAITWSGLSTTYLDSVQGRFTISRDNTKDTVYLQMNSLKPQDTAIYYCAAGPNIPSILRTRESEYAYWGQGTQVTVS chain 2: GPPCPPCPAPEFLGGPSVFLFPPKPKDTLMISRTPEVTCVVVDVSQEDPEVQFNWYVDGVEVHNAKTKPREEQFNSTYRVVSVLTVLHQDWLNGKEYKCKVSNKGLPSSIEKTISKAKGQPREPQVCTLPPSQEEMTKNQVSLSCAVKGFYPSDIAVEWESNGQPENNYKTTPPVLDSDGSFFLVSRLTVDKSRWQEGNVFSCSVMHEALHNHYTQKSLSLSLGKGGGGSGGGGSEVQLLESGGGLVQPGGSLRLSCAASGFTFGNYDMAWVRQAPGKRPEWVSSIDTGGDITHYADSVKGRFTISRDNAKNTLYLQMNSLRPEDTAVYWCATDEEYALGPNEFDYYGQGTLVTVSS
